Laboratory results taken from patent publication US20240400689A1 (ANTENGENE BIOLOGICS, published 2024).
Residue numbers refer to the chain shown, from its start. Blank lines part the entries; values can stand above or below the binder they belong to.

Tests used:
[1] = target: T1, Macaca fascicularis CD276 (Macaca fascicularis); test: FACS on CHO-S-cynoCD276 cells
T1 construct: whole, on cells; also called cynomolgus monkey CD276; cynoCD276
Experimental: (§1) Screening & Expansion—The subcloning plates were screened by protein or cell-based Elisa, and the subclones with good binding ability were expanded to 24-wells for confirmation tests. The specificity and cross-reactivity of these subclones were confirmed with FACS analysis. Briefly, parental CHO-S cells, CHO-S-hCD276, CHO-S cell line stably over-expressing Macaca fascicularis CD276, CHO-K1 S, cell line stably over-expressing mouse CD276 were incubated with antibodies produced by each subclone respectively. Fluorescent dye-conjugated secondary antibody was used to detect the binding of the primary antibody with the cells. Median fluorescence intensity was measured by FACS analysis.

[2] = target: T2, human CD276 protein (human, UniProt Q5ZPR3 29-534); test: FACS on CHO-S-hCD276 cells
T2 construct: whole, on cells; for SKOV3 and the other cancer lines the protein is the cells' own; also called B7-H3; B7H3
T2 sequence (looked up): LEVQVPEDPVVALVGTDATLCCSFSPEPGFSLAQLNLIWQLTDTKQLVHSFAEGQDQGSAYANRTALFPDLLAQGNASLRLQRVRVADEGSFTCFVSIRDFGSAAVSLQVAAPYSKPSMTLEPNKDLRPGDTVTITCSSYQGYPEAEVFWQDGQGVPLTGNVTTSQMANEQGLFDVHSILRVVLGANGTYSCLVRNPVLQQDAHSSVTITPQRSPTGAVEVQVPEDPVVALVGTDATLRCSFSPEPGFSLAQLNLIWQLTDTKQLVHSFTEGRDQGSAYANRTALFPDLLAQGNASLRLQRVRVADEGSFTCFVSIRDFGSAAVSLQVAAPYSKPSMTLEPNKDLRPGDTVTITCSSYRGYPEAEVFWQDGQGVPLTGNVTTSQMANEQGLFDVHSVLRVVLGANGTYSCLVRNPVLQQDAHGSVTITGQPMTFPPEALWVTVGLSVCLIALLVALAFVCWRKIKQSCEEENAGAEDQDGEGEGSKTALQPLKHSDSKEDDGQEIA
Experimental: as §1

[3] = target: T3, mouse CD276 protein (mouse, UniProt Q8VE98 29-316); test: FACS on CHO-S-mCD276 cells
T3 construct: whole, on cells; also called mCD276; CHO-S-mCD276
T3 sequence (looked up): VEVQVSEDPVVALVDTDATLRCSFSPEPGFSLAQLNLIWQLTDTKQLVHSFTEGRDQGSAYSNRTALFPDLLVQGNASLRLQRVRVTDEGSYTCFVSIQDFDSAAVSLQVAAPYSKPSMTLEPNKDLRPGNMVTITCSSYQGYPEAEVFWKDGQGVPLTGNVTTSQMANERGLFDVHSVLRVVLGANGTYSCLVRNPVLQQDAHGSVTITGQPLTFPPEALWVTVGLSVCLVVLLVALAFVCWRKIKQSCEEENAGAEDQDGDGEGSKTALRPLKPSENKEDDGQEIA
Experimental: as §1

- FACS MFI [1]: 61800
- FACS MFI [2]: 78100
- FACS MFI [3]: 1300
B1: 14-E7-G9-D4 (antibody, V domains shown)
VH: EVQLQQSGPELVKPGASVKMSCKASGYTFTNYIMHWVKQKPGQGLEWIGYINPYNDGIKYNEKFKGKATLTSDKSSSTAYMELSSLTSEDSAVYYCTRWGNYVFYYTMDYWGQGTSVTVSS
VL: QIVLSQSPAILSASPGEKVTMTCRASSSVSYMHWYQQKPGSSPKPWIYATSNLASGVPARFSGSGSGTSYSLTISRMEAEDAATYYCQQWSGNPPLTFGAGTKLELK
notes: mouse monoclonal antibody (hybridoma)

- FACS MFI [1]: 6420
- FACS MFI [2]: 82400
- FACS MFI [3]: 1290
B2: 3-G7-D8-D3 (antibody, V domains shown)
VH: QVQLQQSGAELARPGTSVKLSCKASGYTFTTYWIQWVKQRPGQGLEWIGAIYPGDGDTRYTQKFKGKATLTADKSSSTAYMQLSTLASEDSAVYYCARPYDGYYIDYPMDSWGQGTSVTVSS
VL: QIVLTQSPAIMSASPGEKVTMTCSASSRINYMHWYQQKPGTSPIIWIYDTSKLASGVPARFSGSGSGTSYSLTISSMEAEDAATYYCHQRSSYPFTFGSGTKLEIK
notes: as for B1

- FACS MFI [1]: 95800
- FACS MFI [2]: 54100
- FACS MFI [3]: 6200
B3: 13-A8-C4-G1 (antibody, V domains shown)
VH: QVQLQQPGAELVKPGASMKLSCKASGYIFTSNWMHWVKQRPGQGLEWIGMIHPNSGTTSYNEKFKNKAKLTVDKSSSTAYVQLSSLTSEDSAVYYCAGPTTTRRFYPMDYWGQGTSVTVSS
VL: QAVVTQESALTTSPGETVTLTCRSSTGAVTTSNYANWVQEKPDHLFTGLIGGTNNRAPGVPARFSGSLIGDKAALTITGAQTEDEAIYFCALWYSNHFIFGSGTKVTVL
notes: as for B1

- FACS MFI [1]: 43000
- FACS MFI [2]: 36600
- FACS MFI [3]: 5730
B4: 15-C8-B5-G7 (antibody, V domains shown)
VH: QVQLQQPGAELVKPGASVKLSCKASDYTFTSHWMHWVKQRPGQGLEWIGMIHPNSGTTHYNENFKNKATLTVDNSSSTAYMQLSSLTSEDSAVYYCAWGSSNSYFYAMAYWGQGTSVTVSS
VL: B3 VL with D43A, Y94F, F98L, I99V, S102G, V106L
notes: as for B1

- FACS MFI [1]: 114000
- FACS MFI [2]: 37400
- FACS MFI [3]: 6980
B5: 6-F3-G2-G1 (antibody, V domains shown)
VH: QVQLQQPGAELVKPGASVKLSCKASDYTFTNYWMHWVKQRPGQGLEWIGMIHPNSGTTSYNEKFKNKATLTVDTSSATTYMHLSSLTSEDSAVYYCASHYGNSYSAMDYWGQGTSVTVSS
VL: B3 VL with E16G, T19I, N54S, A62V, E85D, I87M, N96T, F98Y, I99V, S102G
notes: as for B1

- FACS MFI [1]: 148000
- FACS MFI [2]: 145000
- FACS MFI [3]: 2100
B6: 4-D5-B9-B11 (antibody, V domains shown)
VH: EIGGLVKPGGSLKFSCAASGFTFSSYAMSWVRQTPEKRLEWVATISGGGIYYPDSVKGRFTISRDNAKNTLYLQMSSLRSEDTAMYYCARQGSKGWDAMDYWGQGTSVTVSS
VL: QIVLTQSPAIMSASPGEKVTMTCRASSSVSFMHWYQQKSGTSPKRWIYETSKLASGVPDRFSGSGSGTSYSLTISSMEAEDAATYYCQQWSSNPLTFGAGTKLELK
notes: as for B1

- FACS MFI [1]: 30400
- FACS MFI [2]: 113000
- FACS MFI [3]: 1360
B7: 6-H11-G5-D8 (antibody, V domains shown)
VH: EVQLQESGPELVKPGTSVKLSCKASGYTFTSYDINWVRQRPEQGLEWIGWIFPGNGDTYYNEKFKGKATLTSDKSSSTAYMQLSRLTSEDSAVYFCARDLRLGTFDYWGQGTTLTVSS
VL: B6 VL with A9E, R24S, F31Y, M32I, E49D, D59A, S75R, W90G, L95R, A99G
notes: as for B1

- FACS MFI [1]: 5590
- FACS MFI [2]: 6990
- FACS MFI [3]: 1310
B8: 7-E1-F8-F6 (antibody, V domains shown)
VH: QVQLQQSGPELVKPGASVQMSCKASGYTFTDYVISWVNQRTGQGLEWIGEIYPRSGNTYYNEKFKGKATLTADKSSNTAYMQLSSLTSEDSAVYFCARFDIAYSFDYWGQGTTLTVSS
VL: DVVMTQTPLSLPVSLGDQASISCRSTQSLVHSNGVTYLHWYLQKPGQSPKLLIYKVSNRFSGVPDRFSGSGSGTDFTLKISRVEAEDLGVYFCSQGTHVPWTFGGGTKLEIK
notes: as for B1
